# Reference: paper doi:10.1101/2021.05.19.444448
# T1: HA-PGBD1 (Homo sapiens, UniProt Q96JS3 1-809)
# T1 sequence: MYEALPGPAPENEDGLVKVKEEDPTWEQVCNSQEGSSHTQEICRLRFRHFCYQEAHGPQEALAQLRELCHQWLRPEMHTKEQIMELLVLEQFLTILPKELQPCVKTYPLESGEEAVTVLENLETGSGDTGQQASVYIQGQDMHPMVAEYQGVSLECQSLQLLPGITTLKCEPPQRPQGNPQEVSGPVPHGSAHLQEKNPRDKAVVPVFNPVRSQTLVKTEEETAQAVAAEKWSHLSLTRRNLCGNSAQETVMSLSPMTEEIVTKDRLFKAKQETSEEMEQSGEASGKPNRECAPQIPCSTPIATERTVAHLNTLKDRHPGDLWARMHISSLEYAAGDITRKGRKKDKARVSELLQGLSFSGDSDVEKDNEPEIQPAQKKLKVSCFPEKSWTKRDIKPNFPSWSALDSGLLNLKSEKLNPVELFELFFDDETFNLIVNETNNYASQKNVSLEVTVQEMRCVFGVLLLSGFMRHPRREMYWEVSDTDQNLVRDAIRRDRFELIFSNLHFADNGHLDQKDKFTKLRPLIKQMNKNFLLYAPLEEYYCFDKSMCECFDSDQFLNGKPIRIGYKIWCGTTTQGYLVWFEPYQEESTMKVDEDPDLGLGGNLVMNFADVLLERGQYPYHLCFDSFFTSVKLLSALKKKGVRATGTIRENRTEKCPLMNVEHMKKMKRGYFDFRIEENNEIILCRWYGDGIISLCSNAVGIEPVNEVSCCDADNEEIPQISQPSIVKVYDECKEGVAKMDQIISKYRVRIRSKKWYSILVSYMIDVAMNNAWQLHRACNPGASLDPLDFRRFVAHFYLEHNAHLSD
# B1: unlabelled PGBD1 oligo (competitor) (dsDNA)
# DNA 1: GCTTTCAATGGAATGGAATGCCTTCC
# DNA 2: GGAAGGGATTCCATTCCATTGAAAGC
# B2: SCAN-12 / PGBD1 oligo (GS-PGBD1-UP/LOW) (dsDNA)
# DNA 1: GCTTTCAATGGAATGGAATGCCTTCC
# DNA 2: GGAAGGGATTCCATTCCATTGAAAGC
# Legend:
# [1] = target: T1, HA-PGBD1; assay: competition
# [2] = target: T1, HA-PGBD1; assay: EMSA
Binder,binding result [1],binding result [2]
B1,binds,
B2,,binds
